Patent publication US20160369008A1 (Astellas, published 2016)
Blank lines part the entries; values can stand above or below the binder they belong to.

How the values were obtained:
[1] = target: recombinant active human PAI-1 (human, UniProt P05121 24-402); assay: cell-based or functional assay
[2] = target: T1, active human PAI-1 in complex with vitronectin (human, UniProt P05121 24-402; P04004 20-478); assay: ELISA, VTN-PAI-1 complex on the plate
T1 construct: Vitronectin was coated on the plate and active PAI-1 was captured on it; also called VTN-PAI-1 complex; VTN-PAI-1
Procedure: An HRP-labeled goat anti-mouse Ig antibody (Southern Biotech, 1010-05) for the detection of a test antibody having an Fe region of a mouse antibody and an HRP-labeled rabbit anti-human Ig antibody (Southern Biotech, 6145-05) for the detection of a test antibody having an Fc region of a human antibody are used as the detection antibody. After incubation at room temperature for 30 minutes, the plates were washed three times with a washing solution. A color developing solution contained in a peroxidase color development kit (Sumitomo Bakelite Co., Ltd.) was added at 100 μL/well, followed by allowing to stand at room temperature for about 15 minutes, 100 μL of a reaction stop solution contained in the color development kit was added, and then the OD450 value was measured using an EnVision counter (PerkinElmer Co., Ltd.).
For each plate, the test of each antibody was carried out in duplicate, and the average value was calculated. In connection with the calculation of a PAI-1 binding rate at each concentration of each antibody, the measurement value of a well to which 0.1% BSA-containing PBS had been added instead of an antibody was taken to be 0%, and the measurement value of the maximum concentration in each antibody was set to 100%. […] The calculated PAI-1 binding rate was analyzed to calculate EC50 values of the antibodies by four-parameter logistic curve regression.

[3] = target: active monkey PAI-1 in complex with vitronectin (monkey); assay: ELISA, VTN-monkey PAI-1 complex on the plate
Sequence of active monkey PAI-1 in complex with vitronectin (monkey) (P04004 20-478, one chain of several): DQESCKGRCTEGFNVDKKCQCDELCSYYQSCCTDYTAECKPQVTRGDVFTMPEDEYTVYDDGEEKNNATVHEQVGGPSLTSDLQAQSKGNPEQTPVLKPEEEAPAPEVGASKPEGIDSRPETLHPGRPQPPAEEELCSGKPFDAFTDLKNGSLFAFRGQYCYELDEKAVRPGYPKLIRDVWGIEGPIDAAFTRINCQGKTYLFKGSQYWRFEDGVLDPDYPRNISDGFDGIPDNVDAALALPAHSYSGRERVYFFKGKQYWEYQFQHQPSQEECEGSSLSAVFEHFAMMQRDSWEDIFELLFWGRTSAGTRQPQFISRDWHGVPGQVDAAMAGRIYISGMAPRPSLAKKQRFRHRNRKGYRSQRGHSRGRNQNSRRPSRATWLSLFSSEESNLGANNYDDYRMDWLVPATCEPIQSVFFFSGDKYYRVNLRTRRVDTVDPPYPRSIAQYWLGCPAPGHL

[4] = target: T2, active PAI-1 in human plasma (human, UniProt P05121 24-402); assay: ELISA: inhibition of the capture of active PAI-1 of human plasma on immobilised uPA
T2 construct: Native protein in diluted plasma; also called human plasma-derived active PAI-1; active human PAI-1 in the plasma
Procedure: After the blocking agent in the assay plate was removed by reverse centrifugation, the pre-incubated plasma-antibody mixtures, the calibration curve sample, and the control sample were added at 100 μL/well to the assay plate which was then allowed to stand at room temperature for 30 minutes. The plate was washed three times with a washing solution (0.05% Tween-20-containing TBS), and anti-PAI-1 antibodies (Progen Biotechnik, MA-33H1F7) diluted 3,000-fold with a blocking agent (NACALAI TESQUE, INC., 03953-95) solution which had been diluted 20-fold in PBS were added thereto at 100 μL/well. […] An alkaline phosphatase substrate (Chemiluminescent AP; SurModics, APU4-0100-01) 5-fold diluted in a 0.1 mM magnesium chloride aqueous solution containing 2 mM Tris (pH 9.8) was added at 100 μL/well, and the signal value was measured using an EnVision counter (PerkinElmer Co., Ltd.).
The concentration of active human PAI-1 was calculated using a calibration curve. The test was carried out in duplicate for each antibody, and the average value was calculated. […] The calculated active human PAI-1 inhibitory rate was analyzed to calculate IC50 values of the antibodies by four-parameter logistic curve regression.

[5] = target: T2, active PAI-1 in human plasma; assay: ELISA: inhibition of the capture of active PAI-1 of human plasma on immobilised uPA (Example 9)
Procedure: (§1) The evaluation of an inhibitory activity on active PAI-1 in human plasma was carried out according to the method of Example 5. The evaluation of an inhibitory activity on active PAI-1 in monkey plasma was carried out using monkey plasma instead of human plasma in the method described in Example 5. With regard to the monkey plasma, the plasma was diluted using 0.1% BSA-containing PBS, such that the monkey plasma was diluted 120-fold when a plasma-antibody mixture was prepared. For both of two evaluation systems, the final concentration of each antibody was used in a range from 300 ng/mL to 0.3 ng/mL (7-step dilution). As a calibration curve sample, recombinant active human PAI-1 (Molecular Innovations Inc., PAI-A) was used which had been diluted in 7 steps in a range from 3000 pg/mL to 3 pg/mL with 0.1% BSA-containing PBS.
(§2) The concentration of each active PAI-1 was calculated using a calibration curve. The test was carried out in duplicate for each antibody, and the average value was calculated. […] Each of the calculated active PAI-1 inhibitory rates was analyzed to calculate IC50 values of the antibodies by four-parameter logistic curve regression.

[6] = target: T3, active PAI-1 in monkey plasma (cynomolgus monkey, UniProt G7P138 24-402); assay: ELISA: inhibition of the capture of active PAI-1 of monkey plasma on immobilised uPA (Example 9)
T3 construct: Native protein in diluted plasma
Procedure: as §1, §2

[7] = target: T4, human PAI-1 in complex with tPA (human, UniProt P05121 24-402; P00750 36-562); assay: ELISA, tPA-PAI-1 complex on the plate
T4 construct: tPA was coated on the plate and active PAI-1 was captured on it; also called tPA-PAI-1 complex; Human tPA-PAI-1

[8] = target: T5, human PAI-1 in complex with uPA (human, UniProt P05121 24-402; P00749 21-431, limits assumed); assay: ELISA, uPA-PAI-1 complex on the plate
T5 construct: uPA was coated on the plate and active PAI-1 was captured on it; also called uPA-PAI-1 complex; Human uPA-PAI-1

latent human PAI-1 = target: T6, latent human PAI-1 (human, UniProt P05121 24-402); assay: ELISA, latent human PAI-1 on the plate
T6 construct: Same protein as active PAI-1 but in the latent conformation; also called recombinant latent human PAI-1; latent PAI-1

[9] = target: T1, active human PAI-1 in complex with …; assay: ELISA, VTN-PAI-1 complex on the plate; 100% set to the signal of MA56-A7C10 at its maximum concentration

EC50 value, taking the activity of uPA as an indicator (cleavage of a fluorogenic uPA substrate peptide) [1]: 0.0127 µg/mL | EC50 [2]: 0.0042 µg/mL | EC50 [3]: 0.0036 µg/mL | IC50 [4]: 0.006 µg/mL | IC50 [5]: 0.0042 µg/mL | IC50 [6]: 0.037 µg/mL
B1: fully human HOT-1 (antibody, human IgG1, kappa, V domains shown)
VH: EVQLVESGGGVVRPGGSLRLSCAASGFTFDDHGMTWVRQAPGKGLEWVSGINWNGARTVYADSVKGRFTISRDNAKNSLYLHLISLRAEDTALYHCARDRGLGLFDYWGQGTLVTVSS
VL: DIQMTQSPSTLSASVGDRVTITCRASQSISSWLAWYQQKPGKVPKILIYKASRLESGVPSRISGSGSGTEFTLTISSLQPDDFATYYCQQYNGYSYTFGQGTKLEIKR
notes: Human Ig gamma1 / human kappa constant regions; also called fully human antibody of HOT-1; fully human HOT-1 antibody

IC50 [4]: 0.0113 µg/mL
B2: HOT-1 (chimeric antibody) (antibody, V domains shown)
VH: B1 VH
VL: B1 VL

EC50 [2]: 0.0143 µg/mL | EC50 [7]: 0.0117 µg/mL | EC50 [8]: 0.0127 µg/mL | EC50 (latent human PAI-1): 0.0136 µg/mL
B3: MA-33H1F7 (antibody, V domains shown)
VH: QVQLQQSGAEVVKPGASVKLACTASGFNIKDTYIHWVKQGPEQGLEWIGRIDPANGNTKYDSKFQDKATITADTSSNTAYLHLSSLTSEDTAVYYCVRGDYDYVYFDYWGQGTTVTVSS
VL: DIQMTQSPSSLSASLGDRVTISCRASQDISNFLDWYQQKPDGTVKLLIYYTSRLHSGVPSRFSGSGSGTDYSLTISKLEQEDIATYFCQQGNTFPPTFGGGTKLEIK

EC50 [7]: 0.0228 µg/mL | EC50 [8]: 0.0129 µg/mL | EC50 (latent human PAI-1): 0.64 µg/mL | EC50 [9]: 5.68 µg/mL
B4: MA-33B8 (antibody, V domains shown)
VH: not shown
VL: DIVMTQSPSSLAVSVGEKVTMSCKSSQSLLNIIKQKNCLAWYQQKPGQSPKLLIYWASTRESGVPDRFTGSGSGTDFTLTISSVKAEDLAVYYCQQYYSYPYTFGGGTKLEIK
